Here are results for eight molecules from PMC8808172 (The Journal of Biological Chemistry, 2021).

The labels stand for the following.
T1: ClpX N-terminal zinc-binding domain (ClpXN; amino acids 1–55) (E. coli, UniProt P0A6H1 1-55)
T1 sequence (looked up): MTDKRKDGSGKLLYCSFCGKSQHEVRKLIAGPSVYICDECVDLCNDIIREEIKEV

B1: ClpX (WT) (enzyme)
chain: not shown
B2: ClpX(A30S) (enzyme)
chain: not shown
B3: ClpX(L13D) (enzyme)
chain: not shown
B4: ClpX(L13A) (enzyme)
chain: not shown
B5: ClpX(L12S) (enzyme)
chain: not shown
B6: ClpX(H23A) (enzyme)
chain: not shown

Data set [1] deals with the molecule itself. Description: SEC. On the technique in general: SEC sorts molecules by how far they enter the pores of the column.
The target of data set [2] is T1, ClpX N-terminal zinc-binding domain …. Description: NMR titration.
For data set [3], the target named is B1. Description: filter retention assay.
Data set [4] deals with B2. Description: filter retention assay.

Regarding B1, in data set [1], the “stoichiometry N” value stood at 6.
Still for that read-out and setting: the same measure for B2: 6.
As to MKCPVCHQGEMVSGIKDIPYTFRGRKTVLKGIHG (domain or fragment, E. coli, UniProt Q46864 1-34, looked up) [MqsA_(1–34)], the binding result in data set [2] is “binds”.
For the molecule MKCPVCHQGEMVSGIKDIPYTFRGRKTVLKGIHG (domain or fragment, E. coli, UniProt Q46864 1-34, looked up) [Gfp-MqsA_(1–34)], the binding result in data set [3] and in data set [4] was “binds” throughout.
Consider B3, for which the “stoichiometry N” value in data set [1] was 6.
Still for that read-out and setting: the same measure for B4: 6.
Regarding B5, the “stoichiometry N” value in data set [1] stood at 6.
On the same count and under the same terms, the value for B6 was 6.

As a reminder, the stoichiometry N is the number of molecules, sites or subunits per partner or assembly.
